Laboratory results published in PMC2731243, “Structure and Novel Functional Mechanism of Drosophila SNF in Sex-Lethal Splicing”.

Legend:
SNF RRM1 [1] = biological target: T1, SNF RRM1 (Drosophila melanogaster, UniProt P43332 1-104); assay: SPR; SPR 25 C: 10 mM HEPES pH 7.4, 150 mM NaCl, 3 mM EDTA, 0.05% P-20 (U1hpII); 50 mM PBS pH 7.0, 1 mM EDTA, 0.05% P-20 (poly(U)). EMSA: 4% native gel, protein ~1 uM, buffer by reference; conditions: protein: recombinant; tags: pET-21d(+) vector; label: biotin; hairpin
T1 sequence: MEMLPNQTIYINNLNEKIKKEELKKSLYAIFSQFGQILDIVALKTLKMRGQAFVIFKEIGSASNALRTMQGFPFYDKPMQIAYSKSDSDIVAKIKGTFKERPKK

SNF RRM1 [2] = biological target: T1, SNF RRM1; assay: SPR; n = 1.20; SPR 25 C: 10 mM HEPES pH 7.4, 150 mM NaCl, 3 mM EDTA, 0.05% P-20 (U1hpII); 50 mM PBS pH 7.0, 1 mM EDTA, 0.05% P-20 (poly(U)). EMSA: 4% native gel, protein ~1 uM, buffer by reference; conditions: protein: recombinant; tags: pET-21d(+) vector; label: biotin
[3] = biological target: T2, SNF full-length (NMR, SPR) (Drosophila melanogaster, UniProt P43332 1-216); assay: SPR; n = 1.06; SPR 25 C: 10 mM HEPES pH 7.4, 150 mM NaCl, 3 mM EDTA, 0.05% P-20 (U1hpII); 50 mM PBS pH 7.0, 1 mM EDTA, 0.05% P-20 (poly(U)). EMSA: 4% native gel, protein ~1 uM, buffer by reference; conditions: protein: recombinant; tags: pET-21d(+) vector; label: biotin
T2 sequence: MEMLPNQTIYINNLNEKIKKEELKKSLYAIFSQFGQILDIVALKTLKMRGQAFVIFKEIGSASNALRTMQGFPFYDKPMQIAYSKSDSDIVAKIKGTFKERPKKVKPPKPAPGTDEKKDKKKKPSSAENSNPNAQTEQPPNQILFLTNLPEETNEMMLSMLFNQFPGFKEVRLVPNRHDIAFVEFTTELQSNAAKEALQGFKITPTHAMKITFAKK

[4] = biological target: T3, SNF RRM1 (residues 1-104) (Drosophila melanogaster (Fruit fly), UniProt P43332); assay: NMR 1H-15N HSQC comparison of full-length SNF with isolated RRMs, plus 15N relaxation; inferred in cis from full-length SNF versus isolated domains; separate RRM1 and RRM2 were not reported as mixed in trans
T3 chain: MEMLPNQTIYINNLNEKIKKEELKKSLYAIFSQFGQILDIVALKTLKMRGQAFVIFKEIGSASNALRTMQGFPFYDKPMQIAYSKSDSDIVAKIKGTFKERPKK

[5] = biological target: T2, SNF full-length (NMR, SPR); assay: NMR titration; protein:RNA 1:15; both RRMs perturbed; SPR 25 C: 10 mM HEPES pH 7.4, 150 mM NaCl, 3 mM EDTA, 0.05% P-20 (U1hpII); 50 mM PBS pH 7.0, 1 mM EDTA, 0.05% P-20 (poly(U)). EMSA: 4% native gel, protein ~1 uM, buffer by reference; conditions: protein: recombinant; tags: pET-21d(+) vector

GGCUUGGCCAUUGCACCUCGGCUGAGUU (structured_RNA, 5' biotin) [U1hpII (SPR)]
Kd (SNF RRM1 [1]): ~4.4 nM

CCCCUCCCCUUUUUUUUUAUUUUUUUU (ssRNA, 5' biotin) [2U-run poly(U) RNA (SPR)]
Kd (SNF RRM1 [2]): ~6000 nM | Kd [3]: ~300 nM

B1: SNF RRM2 (residues 134-216) (protein)
chain: AQTEQPPNQILFLTNLPEETNEMMLSMLFNQFPGFKEVRLVPNRHDIAFVEFTTELQSNAAKEALQGFKITPTHAMKITFAKK
binding result [4]: no binding

UUUUUUUUAUUUUUUUUU (ssRNA) [2U-run (NMR)]
binding result [5]: binds
